Measured values taken from publication doi:10.1101/2024.02.23.581399 (bioRxiv, 2024).
One block for each binder: values may come before it. Non-standard residues stand in square brackets, D forms with d. No end group written: not given here. pT = C[C@@H](OP(=O)(O)O)[C@H](N)C(=O)O; pS = N[C@@H](COP(=O)(O)O)C(=O)O

Target: T1, PLK1PBD (human, UniProt P53350 370-603)
T1 construct: PLK1, human, residues 370-603 (Polo-box domain); Labelled PLK1PBD without a tag in the amylose pull-downs and the crystal structures; also called PLK1_(370-603); Polo-Box Domain; source: E. coli BL21 Gold (DE3), purified (HisTrap, SEC)
Test: crystal structure; PLK1PBD mixed with two times molar excess of phospho-peptide, sitting drop, 18°C
Conditions: both partners purified

T1 sequence (P53350 370-603): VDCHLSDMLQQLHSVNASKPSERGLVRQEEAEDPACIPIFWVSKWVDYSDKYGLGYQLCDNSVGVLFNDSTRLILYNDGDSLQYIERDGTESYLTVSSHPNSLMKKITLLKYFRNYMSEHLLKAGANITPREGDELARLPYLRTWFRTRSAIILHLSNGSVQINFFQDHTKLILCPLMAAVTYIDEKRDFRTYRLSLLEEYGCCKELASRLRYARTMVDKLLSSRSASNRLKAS

binding result: binds
B1: Mis18α_(49-55) phospho-peptide (ASMWSSphM) (peptide)
peptide: ASMWS[pS]M
notes: also called S54ph peptide; Mis18α_(S54ph); source: synthetic peptide (Peptide Synthetics)

binding result: binds
B2: Mis18BP1_(72-82) phospho-peptide (KNIFQSTphMLTE) (peptide)
peptide: KNIFQS[pT]MLTE
notes: Mis18BP1, human, residues 72-82; also called T78ph peptide; Mis18BP1_(T78ph); source: synthetic peptide (Peptide Synthetics)
